In paper PMC13254101:

Experiments:
[1] = target: CrAPE1_(C128S), recombinant soluble domain of Chlamydomonas APE1 with C128S (Chlamydomonas reinhardtii); assay: SEC-MALS
[2] = target: CrAPE1_(C247S), recombinant soluble domain of Chlamydomonas APE1 with C247S (Chlamydomonas reinhardtii); assay: SEC-MALS

Row | Substance | stoichiometry N [1] | stoichiometry N [2]
1 | CrAPE1_(C128S), recombinant soluble domain of Chlamydomonas APE1 with C128S (domain or fragment) | 2 | 
2 | CrAPE1_(C247S), recombinant soluble domain of Chlamydomonas APE1 with C247S (domain or fragment) |  | 2
